Laboratory results as given in patent US20250152742A1, “COMPOSITIONS AND METHODS FOR NEUROLOGICAL DISEASES” (Trames Bio, Inc., priority 2022, published 2025).
Where two headings read alike, the source gives them in different places.

Columns and labels:
[1] = biological target: SEQ ID NO: 33 (CODA71) versus wild type α7-nAChR (Homo sapiens, UniProt P36544, F159M/H163T/I152M/R155K/V154L/W156N/Y151P); assay: Sensitivity of parental chimera SEQ ID NO: 33 to ligands compared with wild type α7-nAChR
Excerpt: To generate LGICs that conduct anion current following exposure to non-native small molecule agonists of the human α7-nAChR, chimeric ligand gated ion channel (LGIC) receptors comprising the ligand binding domain derived from the human α7 nicotinic acetylcholine receptor (α7-nAChR) and the chloride-conducting ion pore domain derived from the human GlyR1α were genetically engineered. […] SEQ ID NO:33 was approximate 2-fold less sensitive to nicotine and approximately 3-fold and 10-fold more sensitive to AZD-0328 and Facinicline/RG3487, respectively, than wild type. CODA71 is described in detail in WO2019104307 and WO2021035179, which are incorporated herein in their entireties.

[2] = tested on: engineered receptors and wild type nAchRa7 expressed in HEK293T cells; assay: High throughput electrophysiology (IonFlux HT/Mercury automated patch clamp), EC50; format: cell-based, human; conditions: for EC50: ligand TC-5619
Experimental: To confirm the […] determined by plate reader as well as develop a better understanding of maximum current flow, the engineered receptors were subjected to high throughput electrophysiology system, as described below. For HEK293T studies, cDNAs encoding ion channels were cloned into pcDNA3.1 using standard recombination techniques. HEK293T cells from Clontech (Lenti-XTM 293T Cell Line) were cultured in DMEM supplemented with 10% FBS and 1% Pen/Strep to 40-50% confluence using standard cell culture protocols, transfected with ion channel plasmids at a concentration of 18 μg per 15 cm dish using Fugene 6, and grown for an additional 24 hours. Cells were then assayed on an electrophysiological system (IonFluxHT and/or Mercury, Fluxion Biosciences) in which dose-response relationships may be assessed through a microfluidics-based platform for establishing whole cell configurations. Ensemble plates were primed with extracellular buffer (140 mM NaCl, 5 mM KCl, 2 mM CaCl2), 1 mM MgCl2, 10 mM HEPES, and 10 mM glucose, pH 7.2 with NaOH, mOsm 310), intracellular buffer (145 mM CsCl, 2 mM CaCl2, 2 mM MgCl2, 10 mM HEPES, and 10 mM EGTA, pH 7.2 with CsOH, mOsm 305), as adapted from Lynagh and Lynch, and test compounds (stocks prepared fresh) diluted in extracellular buffer. Cells were then released from the plate with Accutase, centrifuged, resuspended in extracellular buffer, and loaded into Ensemble plates. Cells were then subjected to a standard protocol for priming, trapping, breaking, and establishing whole cell configuration, with cells held at −60 mV throughout the recording. After recording baseline, progressive doses of test compounds were applied using the IonFlux software to assess dose response relationships. Data were then analyzed off-line using custom Python scripts to convert data to .csv format, re-plot traces, and apply QC measurements to reject unstable recordings (i.e. thresholding based on access resistance and/or standard deviation in baseline, as well as artifact rejection). Peak currents were then calculated, and population data were fit using a 4-parameter logistic equation as described by the Hill Equation. Currents were measured on an automated patch clamp system (Fluxion Biosciences) following 1 second addition of drug and the EC50 values calculated are tabulated below in Table 22A and Table 22B below and Table 21A and Table 21B above (in Example 2).

[3] = HEK293 Cell Line, Table 22A, read-out: High-throughput Ephys EC50 (uM) TC-5619
[4] = high throughput electrophysiology, read-out: TC-5619 EC50 (ephys)

B1: CODA71: parental chimeric LGIC: human α7-nAChR ligand binding domain with GlyRα1 Cys-loop fused to human GlyRα1 ion pore domain (protein)
chain: MRCSPGGVWLALAASLLHVSLQGEFQRKLYKELVKNYNPLERPVANDSQPLTVYFSLSLLQIMDVDEKNQVLTTNIWLQMSWTDHYLQWNVSEYPGVKTVRFPDGQIWKPDILLYNSADERFDATFHTNVLVNSSGHCQYLPPGIFKSSCPMDLKNFPMDVQTCKLKFGSWSYGGWSLDLQMQEADISGYIPNGEWDLVGIPGKRSERFYECCKEPYPDVTFTVTMRRRMGYYLIQMYIPSLLIVILSWISFWINMDAAPARVGLGITTVLTMTTQSSGSRASLPKVSYVKAIDIWMAVCLLFVFSALLEYAAVNFVSRQHKELLRFRRKRRHHKSPMLNLFQEDEAGEGRFNFSAYGMGPACLQAKDGISVKGANNSNTTNPPPAPSKSPEEMRKLFIQRAKKIDKISRIGFPMAFLIFNMFYWIIYKIVRREDVHNQ
modifications: synthetic sequence of chimeric LGIC
[1]; ligand ABT-126
  sensitivity to ABT-126 compared with wild type α7-nAChR: approximately as sensitive
[1]; ligand AZD-0328
  fold more sensitive to AZD-0328 than wild type: approximately 3 fold
[1]; ligand Facinicline/RG3487
  fold more sensitive to Facinicline/RG3487 than wild type: ~10 fold
[1]; ligand TC-6987
  sensitivity to TC-6987 compared with wild type α7-nAChR: approximately as sensitive
[1]; ligand TC-6987, similar to wild type
  agonist activity of TC-6987 on the receptor: partial agonist activity
[1]; ligand acetylcholine
  sensitivity to acetylcholine compared with wild type α7-nAChR: approximately as sensitive
[1]; ligand nicotine
  fold less sensitive to nicotine than wild type: ~2 fold

B2: COAD1055 (protein)
chain: MRCSPGGVWLALAASLLHVSLQGEFQRKLYKELVKNYNPLERPVANDSQPLTVYFSLSLLQIMDVDEKNQVLTTNIWLQMSWTDHYLQWNVSEYPGVKTVWFPDGQIWKPDILLENSADERFDATFHTNVLVNSSGHCQYLPPGIFKSSCPMDLKNFPMDVQTCKLKFGSWSYGGWSLDLQMQEADISGYIPNGEWDLVGIPGKRSERFWECCKEPYPDVTFTVTMRRRMGYYLIQMYIPSLLIVILSWISFWINMDAAPARVGLGITTVLTMTTQSSGSRASLPKVSYVKAIDIWMAVCLLFVFSALLEYAAVNFVSRQHKELLRFRRKRRHHKSPMLNLFQEDEAGEGRFNFSAYGMGPACLQAKDGISVKGANNSNTTNPPPAPSKSPEEMRKLFIQRAKKIDKISRIGFPMAFLIFNMFYWIIYKIVRREDVHNQ
modifications: synthetic sequence of chimeric LGIC
[2]; [3]
  EC50: 0.0106 µM
[2]; [4]
  EC50: 0.0106 µM

B3: CODA806: engineered receptor: Y115D, L131Q in SEQ ID NO: 33 (Chemogenic receptor-11) (protein)
chain: MRCSPGGVWLALAASLLHVSLQGEFQRKLYKELVKNYNPLERPVANDSQPLTVYFSLSLLQIMDVDEKNQVLTTNIWLQMSWTDHYLQWNVSEYPGVKTVRFPDGQIWKPDILLDNSADERFDATFHTNVQVNSSGHCQYLPPGIFKSSCPMDLKNFPMDVQTCKLKFGSWSYGGWSLDLQMQEADISGYIPNGEWDLVGIPGKRSERFYECCKEPYPDVTFTVTMRRRMGYYLIQMYIPSLLIVILSWISFWINMDAAPARVGLGITTVLTMTTQSSGSRASLPKVSYVKAIDIWMAVCLLFVFSALLEYAAVNFVSRQHKELLRFRRKRRHHKSPMLNLFQEDEAGEGRFNFSAYGMGPACLQAKDGISVKGANNSNTTNPPPAPSKSPEEMRKLFIQRAKKIDKISRIGFPMAFLIFNMFYWIIYKIVRREDVHNQ
modifications: synthetic sequence of chimeric LGIC
[2]; ligand RG-3487
  fold increased potency towards RG-3487 compared to wild type receptor: over 10 fold
[2]; ligand acetylcholine
  fold reduced potency to acetylcholine compared to wild type receptor: over 500 fold

B4: COAD1056 (protein)
chain: MRCSPGGVWLALAASLLHVSLQGEFQRKLYKELVKNYNPLERPVANDSQPLTVYFSLSLLQIMDVDEKNQVLTTNIWLQMSWTDHYLQWNVSEYPGVKTVFFPDGQIWKPDILLENSADERFDATFHTNVLVNSSGHCQYLPPGIFKSSCPMDLKNFPMDVQTCKLKFGSWSYGGWSLDLQMQEADISGYIPNGEWDLVGIPGKRSERFWECCKEPYPDVTFTVTMRRRMGYYLIQMYIPSLLIVILSWISFWINMDAAPARVGLGITTVLTMTTQSSGSRASLPKVSYVKAIDIWMAVCLLFVFSALLEYAAVNFVSRQHKELLRFRRKRRHHKSPMLNLFQEDEAGEGRFNFSAYGMGPACLQAKDGISVKGANNSNTTNPPPAPSKSPEEMRKLFIQRAKKIDKISRIGFPMAFLIFNMFYWIIYKIVRREDVHNQ
modifications: synthetic sequence of chimeric LGIC
[2]; [3]
  EC50: 0.042 µM
[2]; [4]
  EC50: 0.0421 µM
